The source of these data is patent US20190201487.

In this data set the target is T1, neonatal NET-Inhibitory Factor (nNIF).
T1 chain: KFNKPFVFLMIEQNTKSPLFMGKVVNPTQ

B1: neutrophil elastase (NE) (protein)
chain: IVGGRRARPHAWPFMVSLQLRGGHFCGATLIAPNFVMSAAHCVANVNVRAVRVVLGAHNLSRREPTRQVFAVQRIFENGYDPVNLLNDIVILQLNGSATINANVQVAQLPAQGRRLGNGVQCLAMGWGLLGRNRGIASVLQELNVTVVTSLCRRSNVCTLVRGRQAGVCFGDSGSPLVCNGLIHGIASFVRGGCASGLYPDAFAPVAQFVNWIDSIIQ
On to B1, for which the “NE enzyme activity in vitro (cleavage of (MeOSuc)-AAPV-(pNA))” value is recorded as “neither nNIF nor CRISPP inhibited NE activity”.
